What all share (test): high-speed atomic force microscopy (HS-AFM); channel held by its C-terminal His-tag on Ni2+-coated mica, reconstituted into a DMPC bilayer, extracellular side imaged; 20 mM Tris pH 7.4, 150 mM NaCl (WT, E32Q/N49K) or 50 mM NaCl (N49K); 5 or 10 frames/s; no membrane potential
The target of assay [1] is NavAb channel N49K mutant, C-terminal cytoplasmic domain truncated, C-terminal His-tag (Arcobacter butzleri) (UniProt A8EVM5).
For assay [2], the target named is NavAb channel E32Q/N49K mutant, C-terminal cytoplasmic domain truncated, C-terminal His-tag (Arcobacter butzleri) (UniProt A8EVM5).
Assay [3] deals with NavAb channel, wild type, C-terminal cytoplasmic domain truncated, C-terminal His-tag (Arcobacter butzleri) (UniProt A8EVM5).

In general, stoichiometry N refers to a count of units in the complex or per binding partner. Regarding “NavAb channel N49K mutant, C-terminal cytoplasmic domain truncated, C-terminal His-tag (from UniProt A8EVM5 1-230) (natural protein)”, in assay [1], the stoichiometry N came to 4.
Regarding “NavAb channel E32Q/N49K mutant, C-terminal cytoplasmic domain truncated, C-terminal His-tag (from UniProt A8EVM5 1-230) (natural protein)”, in assay [2], the size of the VSD-VSD oligomer between channels stood at 2 and the stoichiometry N is 4.
Consider “NavAb channel, wild type, C-terminal cytoplasmic domain truncated, C-terminal His-tag (from UniProt A8EVM5 1-230) (natural protein)”, for which, in assay [3], the stoichiometry N was 4.

The values above are taken from article PMC10730821.
